Measured values published in patent US20250145729A1 (DENALI THERAPEUTICS, published 2025).
Positions count from the first letter of the chain named. Names and notes keep the numbering of the source.

B1: 42.8.183 (Fc fusion)
chain: APEAAGGPSVFLFPPKPKDTLMISRTPEVTCVVVDVSHEDPEVKFNWYVDGVEVHNAKTKPREEQYNSTYRVVSVLTVLHQDWLNGKEYKCKVSNKALGAPIEKTISKAKGQPREPQVYTLPPSRDELTKNQVSLTCLVKGFYPSDIAVEWFYEGQKESNYKTTPPVLDSDGSFFLYSKLTVDKSRWQQGNLFACEVMHEALHNHYTYKLLSLSPGK
notes: bivalent; P329G+LALA
B2: 42.8.184 (Fc fusion)
chain: B1 chain with E158L, S159N
notes: bivalent; P329G+LALA
B3: 42.8.185 (Fc fusion)
chain: B1 chain with E158L, S159T
notes: bivalent; P329G+LALA
B4: 42.8.187 (Fc fusion)
chain: B1 chain with Q156S, S159N
notes: bivalent; P329G+LALA
B5: 42.8.189 (Fc fusion)
chain: B1 chain with Q156S
notes: bivalent; P329G+LALA
B6: 42.8.192 (Fc fusion)
chain: B1 chain with Q156S, E158L
notes: bivalent; P329G+LALA
B7: 42.8.194 (Fc fusion)
chain: B1 chain with G155A, S159T
notes: bivalent; P329G+LALA
B8: 42.8.195 (Fc fusion)
chain: B1 chain with G155A
notes: bivalent; P329G+LALA
B9: 42.8.197 (Fc fusion)
chain: B1 chain with G155A, E158L, S159T
notes: bivalent; P329G+LALA
B10: 42.8.199 (Fc fusion)
chain: B1 chain with G155A, Q156S, S159N
notes: bivalent; P329G+LALA
B11: 42.8.201 (Fc fusion)
chain: B1 chain with G155A, Q156S
notes: bivalent; P329G+LALA
B12: 42.8.202 (Fc fusion)
chain: B1 chain with G155A, Q156S, E158L, S159N
notes: bivalent; P329G+LALA
B13: 42.8.204 (Fc fusion)
chain: B1 chain with G155A, Q156S, E158L
notes: bivalent; P329G+LALA
B14: 42.8.207 (Fc fusion)
chain: B1 chain with G155D
notes: bivalent; P329G+LALA
B15: 42.8.208 (Fc fusion)
chain: B1 chain with G155D, E158L, S159N
notes: bivalent; P329G+LALA
B16: 42.8.210 (Fc fusion)
chain: B1 chain with G155D, E158L
notes: bivalent; P329G+LALA
B17: 42.8.212 (Fc fusion)
chain: B1 chain with G155D, Q156S, S159T
notes: bivalent; P329G+LALA
B18: 42.8.213 (Fc fusion)
chain: B1 chain with G155D, Q156S
notes: bivalent; P329G+LALA
B19: 42.8.216 (Fc fusion)
chain: B1 chain with G155D, Q156S, E158L
notes: bivalent; P329G+LALA
B20: 42.8.188 (Fc fusion)
chain: B1 chain with Q156S, S159T
notes: bivalent; P329G+LALA
B21: 42.2 (Fc fusion)
chain: B1 chain with Y153S, E154D, Q156S, S159T
notes: bivalent; P329G+LALA; also called 6.5.11.5.42.2
B22: 42.2.1-20 (Fc fusion)
chain: B1 chain with Y153A, E154D, G155A, Q156S, E158Q, S159R
notes: P329G+LALA
B23: 42.2.3-5 (Fc fusion)
chain: B1 chain with E154G, G155N, Q156G, S159T
notes: P329G+LALA
B24: 42.2.19 (Fc fusion)
chain: B1 chain with E154D, G155D, Q156S, E158L, S159T, Q189P, G190R, N191G, S212G, L213E
notes: P329G+LALA
B25: 42.8.9 (Fc fusion)
chain: B1 chain with Y153S, E154G, Q156S
notes: bivalent; P329G+LALA
B26: 42.8.10 (Fc fusion)
chain: B1 chain with Y153S, E154G, Q156S, E158L, S159N
notes: bivalent; P329G+LALA
B27: 42.8.15 (Fc fusion)
chain: B1 chain with Y153S, E154G, G155A
notes: bivalent; P329G+LALA
B28: 42.8.65 (Fc fusion)
chain: B1 chain with Y153S, E154D, G155D, E158L, S159T
notes: bivalent; P329G+LALA
B29: 42.8.72 (Fc fusion)
chain: B1 chain with Y153S, E154D, G155D, Q156S, E158L
notes: bivalent; P329G+LALA
B30: 42.8.78 (Fc fusion)
chain: B1 chain with Y153S, E158L
notes: bivalent; P329G+LALA
B31: 42.8.79 (Fc fusion)
chain: B1 chain with Y153S, Q156S, S159N
notes: bivalent; P329G+LALA
B32: 42.8.80 (Fc fusion)
chain: B1 chain with Y153S, Q156S, S159T
notes: bivalent; P329G+LALA
B33: 42.8.93 (Fc fusion)
chain: B1 chain with Y153S, G155A, Q156S
notes: bivalent; P329G+LALA
B34: 42.8.111 (Fc fusion)
chain: B1 chain with E154G
notes: bivalent; P329G+LALA
B35: 42.8.122 (Fc fusion)
chain: B1 chain with E154G, G155A, S159T
notes: bivalent; P329G+LALA
B36: 42.8.129 (Fc fusion)
chain: B1 chain with E154G, G155A, Q156S
notes: bivalent; P329G+LALA
B37: 42.8.134 (Fc fusion)
chain: B1 chain with E154G, G155D, S159T
notes: bivalent; P329G+LALA
B38: 42.8.140 (Fc fusion)
chain: B1 chain with E154G, G155D, Q156S, S159T
notes: bivalent; P329G+LALA
B39: 42.8.142 (Fc fusion)
chain: B1 chain with E154G, G155D, Q156S, E158L, S159N
notes: bivalent; P329G+LALA

Biological target: T1, circularly permuted cyno TfR apical domain (cynomolgus monkey)
T1 construct: same design as the human construct; also called cyTfR Apical Domain; cynomolgus TfR apical domain
T1 chain: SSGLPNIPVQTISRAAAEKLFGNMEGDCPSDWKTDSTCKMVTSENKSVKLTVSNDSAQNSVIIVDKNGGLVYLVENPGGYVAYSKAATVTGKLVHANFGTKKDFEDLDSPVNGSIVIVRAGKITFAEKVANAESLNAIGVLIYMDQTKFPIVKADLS
Test: SPR, supernatant, anti-Fab capture
Protocol: (§1) Clones were expressed in HEK293 cells. Supernatants were captured for SPR by GE Healthcare anti-human Fab capture kit and the affinity to human and cyno TfR apical domain was measured (Table 30). The clones in Table 30 were bivalent and each TfR-binding Fc polypeptide also contained P329G and LALA mutations.

Row | Binder | Kd [µM]
1 | B1 | 15.1
2 | B2 | 17
3 | B3 | 13.3
4 | B4 | 13.4
5 | B5 | 13.5
6 | B6 | 11.3
7 | B7 | 11.8
8 | B8 | 13.3
9 | B9 | 11.4
10 | B10 | 8.05
11 | B11 | 4.91
12 | B12 | 6.27
13 | B13 | 4.63
14 | B14 | 13.8
15 | B15 | 7.41
16 | B16 | 7.88
17 | B17 | 9.37
18 | B18 | 9.79
19 | B19 | 5.85
20 | B20 | 12.5

Row | Binder | Kd [µM]
21 | B21 | 7.5
22 | B22 | 7
23 | B23 | 1.8
24 | B24 | 1
25 | B25 | 14.3
26 | B26 | 11.1
27 | B27 | 27
28 | B28 | 10.3
29 | B29 | 13.4
30 | B30 | 6.74
31 | B31 | 28.6
32 | B32 | 13.6
33 | B33 | 17.6
34 | B34 | 19.1
35 | B35 | 9.84
36 | B36 | 3.14
37 | B37 | 13.2
38 | B38 | 5.23
39 | B39 | 4.63

Biological target: T2, circularly permuted human TfR apical domain (human)
T2 construct: TfR residues 326-379 stand N-terminal to 194-296, loop 297-325 deleted; also called huTfR Apical Domain
T2 chain: T1 chain with K39R, N45S, S47N, G69R, D108Y, S109T, K153N, D155E
Test: SPR, supernatant, anti-Fab capture
Protocol: as §1

Row | Binder | Kd [µM]
40 | B1 | 2.33
41 | B2 | 1.68
42 | B3 | 1.85
43 | B4 | 1.6
44 | B5 | 1.1
45 | B6 | 0.761
46 | B7 | 1.23
47 | B8 | 1.23
48 | B9 | 0.755
49 | B10 | 0.869
50 | B11 | 0.647
51 | B12 | 0.505
52 | B13 | 0.436
53 | B14 | 1.2
54 | B15 | 0.446
55 | B16 | 0.596
56 | B17 | 0.62
57 | B18 | 0.872
58 | B19 | 0.421
59 | B20 | 1.03

Row | Binder | Kd [µM]
60 | B21 | 1
61 | B22 | 0.44
62 | B23 | 0.26
63 | B24 | 0.08
64 | B25 | 1.85
65 | B26 | 3.76
66 | B27 | 5.96
67 | B28 | 3.94
68 | B29 | 2.71
69 | B30 | 0.972
70 | B31 | 3.07
71 | B32 | 2.38
72 | B33 | 5
73 | B34 | 1.88
74 | B35 | 3.91
75 | B36 | 0.858
76 | B37 | 1.24
77 | B38 | 0.664
78 | B39 | 0.665
